Results on one molecule are retold here after patent CN112442122A (SHANGHAI NOVAMAB BIOPHARMACEUTICALS CO LTD, dated 2021).

In assay [1] the target is T1, 人PD-1 (on CHOZn/PD-1 stably transfected cells) (human, UniProt Q15116 25-288).
T1 construct: whole, on cells; also called hPD-1; GS-J2/PD-1
In words: flow cytometry; competition with 50ug/ml hPD-L1-Biotin on CHOZn/PD-1 cells. A general note: Flow cytometry measures light scatter and fluorescence of single cells or particles in a stream.

For assay [2], the target named is T1, 人PD-1 (on CHOZn/PD-1 stably transfected …). In words: flow cytometry; binding to CHOZn/PD-1 cells, anti Human IgG-FITC detection.

T1 sequence (Q15116 25-288): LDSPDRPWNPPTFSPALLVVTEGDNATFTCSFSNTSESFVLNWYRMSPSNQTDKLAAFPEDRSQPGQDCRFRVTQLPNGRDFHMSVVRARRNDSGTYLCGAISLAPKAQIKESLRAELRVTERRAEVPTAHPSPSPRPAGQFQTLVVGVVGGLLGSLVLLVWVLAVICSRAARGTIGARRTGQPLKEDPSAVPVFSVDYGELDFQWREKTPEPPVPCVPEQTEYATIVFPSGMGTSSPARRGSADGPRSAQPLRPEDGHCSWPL

B1: PD-1Nb-Fc融合蛋白 (Fc fusion)
chain: QVQLQESGGGSVQAGGSLRLSCAASGYTYSSYYMGWFRQAPGKEREGVAAIDRDGRTSYADSVKGRFTISRDNAKNTLYLQMNSLKPEDTAMYTCAAVLVLSGYYSDYGLVPPPFEYNYWGQGTQVTVSS
notes: also called PD-1纳米抗体; not shown: IgG4 Fc supplied by the pFUSE-IgG4 vector (Invivogen)
For B1, in assay [1], the IC50 (commonly the midpoint of a concentration-inhibition curve) stood at 1.3 µg/mL. For the same molecule, a half-maximal effect in assay [2] (EC50) was put at 1.06 µg/mL.
